Patent US20180185504A1 (Regeneron, published 2018)
Where a chain is given by its changes, count along the chain named. Names and notes keep the numbering of the source. Each block holds one binder with its values, some of them ahead of it.

Assays:
Assay in all cases: SPR Biacore, 25 C, mAb capture
[1] = target: T1, macaca fascicularis (mf) PRLR.mmh (soluble monomeric monkey PRLR) (Macaca fascicularis)
T1 construct: called soluble monomeric PRLR protein
T1 chain: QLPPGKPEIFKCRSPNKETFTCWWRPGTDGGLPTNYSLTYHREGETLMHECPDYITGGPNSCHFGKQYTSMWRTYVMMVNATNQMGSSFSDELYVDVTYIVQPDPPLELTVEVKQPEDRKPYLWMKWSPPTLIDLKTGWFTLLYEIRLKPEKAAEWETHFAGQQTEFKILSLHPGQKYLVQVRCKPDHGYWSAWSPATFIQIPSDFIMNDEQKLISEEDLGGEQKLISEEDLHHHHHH
Protocol: (§1) Measurements were conducted on a T200 Biacore instrument. Kinetic association (kₐ) and dissociation (kd) rate constants were determined by processing and fitting the data to a 1:1 binding model using Scrubber 2.0 curve fitting software.

[2] = target: T2, hPRLR.mmh (soluble monomeric human PRLR) (human)
T2 construct: called soluble monomeric PRLR protein
T2 chain: T1 chain with V76I, T110A, M125I, T158I, I207T
Protocol: as §1

[3] = target: T3, hPRLR.mFc (soluble dimeric human PRLR) (human)
T3 construct: dimeric PRLR construct
T3 chain: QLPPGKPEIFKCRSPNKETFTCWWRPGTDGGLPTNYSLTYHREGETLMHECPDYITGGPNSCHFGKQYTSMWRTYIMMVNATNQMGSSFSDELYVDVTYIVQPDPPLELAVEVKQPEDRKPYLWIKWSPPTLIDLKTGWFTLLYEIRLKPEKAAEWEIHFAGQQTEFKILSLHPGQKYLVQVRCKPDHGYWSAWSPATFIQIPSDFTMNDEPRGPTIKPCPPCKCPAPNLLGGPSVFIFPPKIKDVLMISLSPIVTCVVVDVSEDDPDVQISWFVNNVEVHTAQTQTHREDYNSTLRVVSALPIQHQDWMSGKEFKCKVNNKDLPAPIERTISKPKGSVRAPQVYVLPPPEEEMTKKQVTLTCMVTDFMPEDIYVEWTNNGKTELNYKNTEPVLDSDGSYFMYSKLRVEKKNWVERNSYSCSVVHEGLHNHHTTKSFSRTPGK
Protocol: as §1

Kd [1]: 1.14 nM
T½ [1]: 88.2 min
koff [1]: 0.000131 s⁻¹
kon [1]: 115000 M⁻¹ s⁻¹
Kd [2]: 0.49 nM
T½ [2]: 157 min
koff [2]: 7.35e-05 s⁻¹
kon [2]: 150000 M⁻¹ s⁻¹
Kd [3]: 0.0684 nM
T½ [3]: 588 min
koff [3]: 1.97e-05 s⁻¹
kon [3]: 287000 M⁻¹ s⁻¹
B1: H1H6975N (antibody, human IgG1, V domains shown)
VH: EVHLVESGGGLVQPGGSLRLSCAASGFTFSSYEMNWVRQTPGKGLEWISHISSRSVIIYYADSVKGRFTISRDNAKNSLFLQMNSLRAEDTAVYFCAGITIFGIPEYWGQGTLVTVSS
VL: EIVLTQSPATLSLSPGERATLSCRASQSVSSYFAWYQQKPGQAPRLLIYDASSRATGIPTRFSGSGSGTDFTLTISSLEPEDFAVYYCQQRSSWPITFGQGTRLEIK
notes: Tested with human IgG1 Fc (H1H); also called H2M6975N

Kd [1]: 0.416 nM
T½ [1]: 35.6 min
koff [1]: 0.000325 s⁻¹
kon [1]: 782000 M⁻¹ s⁻¹
Kd [2]: 0.302 nM
T½ [2]: 44.9 min
koff [2]: 0.000257 s⁻¹
kon [2]: 852000 M⁻¹ s⁻¹
Kd [3]: 0.0439 nM
T½ [3]: 283 min
koff [3]: 4.08e-05 s⁻¹
kon [3]: 931000 M⁻¹ s⁻¹
B2: H1H6966N (antibody, human IgG1, V domains shown)
VH: QVQLVQSGAEVQKPGASVKVSCKVSGYTLTALSIHWVRQAPGKGLEWMGNFDPGDGETIHAQKFQGRVTMTGDTSTDTAYMELSSLRSEDTAVYYCVGVTFDYWGQGTLVTVSS
VL: EIVMTQSPATLSVSPGERATLSCRASQSVASNLAWYQQKPGQAPRLLLYGASTRATGIPARFSGSGSGTEFTLTISSLQSEDFALYYCQHYNNWPLTFGGGTKVEIK
notes: Tested with human IgG1 Fc (H1H); also called H2M6966N

Kd [1]: 3.08 nM
T½ [1]: 19.7 min
koff [1]: 0.000585 s⁻¹
kon [1]: 190000 M⁻¹ s⁻¹
Kd [2]: 1.35 nM
T½ [2]: 34.8 min
koff [2]: 0.000332 s⁻¹
kon [2]: 246000 M⁻¹ s⁻¹
Kd [3]: 0.11 nM
T½ [3]: 259 min
koff [3]: 4.45e-05 s⁻¹
kon [3]: 407000 M⁻¹ s⁻¹
B3: H1H6967N (antibody, human IgG1, V domains shown)
VH: EVQLVESGGDLVHPGRSLRLSCAASGFPFDEYAMHWVRQVPGKGLEWVSGISWSNNNIGYADSVKGRFTISRDNAKNSLYLQMNSLRPEDTAFYYCAKSGIFDSWGQGTLVTVSS
VL: B2 VL with A30S, S31R, N32D, L48I, Y49H, T69A, T74I, L85V, H90Q
notes: Tested with human IgG1 Fc (H1H); also called H2M6967N

Kd [1]: 0.511 nM
T½ [1]: 55 min
koff [1]: 0.000208 s⁻¹
kon [1]: 408000 M⁻¹ s⁻¹
Kd [2]: 0.259 nM
T½ [2]: 64 min
koff [2]: 0.000179 s⁻¹
kon [2]: 692000 M⁻¹ s⁻¹
Kd [3]: 0.0992 nM
T½ [3]: 179 min
koff [3]: 6.45e-05 s⁻¹
kon [3]: 651000 M⁻¹ s⁻¹
B4: H1H6762P (antibody, human IgG1, V domains shown)
VH: QVQLVESGGGVVQPGRSLRLSCAASGFTFSHYGMVWVRQPPGKGLEWVALISFDGTTKYYADSVKGRFTISRDNSKNTLYLQMNSLRAEDTAVYFCVGAIAAAAFDLWGRGTLVTVSS
VL: EIVMTQSPATLSVSPGERATLSCRASQSVSSDLAWYQQKPGQAPRLLIYSASARATGIPARFTGSGSGTDFTLTISSLQSEDFAVYYCQQYNNWPMYTFGQGTKLEIK
notes: Human IgG1 Fc (H1H)

Kd [1]: 1.75 nM
T½ [1]: 14.2 min
koff [1]: 0.000814 s⁻¹
kon [1]: 466000 M⁻¹ s⁻¹
Kd [2]: 1.59 nM
T½ [2]: 13.4 min
koff [2]: 0.000864 s⁻¹
kon [2]: 544000 M⁻¹ s⁻¹
Kd [3]: 0.0906 nM
T½ [3]: 114 min
koff [3]: 0.000101 s⁻¹
kon [3]: 1.12e+06 M⁻¹ s⁻¹
B5: H1H6976N (antibody, human IgG1, V domains shown)
VH: EVQLLESGGGFVQPGGSLRLSCAASGFTFSSYAMSWVRQAPGKGLEWVSIISSNGRYTYYADSVKGRFTISRDNSKNTLYLQMNSLRAEDTAVYYCATVTGDWFDPWGQGTLVTVSS
VL: DIQLTQSPSFLSASVGDRVTITCWASQDIDISLAWYQQKPGKAPKLLIYAASTLQSGVPSKFSGSGSGTDFTLTISSLQPEDFSTYYCQQLNSYPITFGQGTRLDIK
notes: Tested with human IgG1 Fc (H1H); also called H2M6976N
